According to patent publication US20210070876A1 (LES LABORATOIRES SERVIER, published 2021):

Columns and labels:
[1] = target: T1, His-tagged cynomolgus CD73 ECD (cynomolgus monkey (Macaca fascicularis)); assay: SPR, mAb captured, His-tagged CD73 ECD injected
T1 chain: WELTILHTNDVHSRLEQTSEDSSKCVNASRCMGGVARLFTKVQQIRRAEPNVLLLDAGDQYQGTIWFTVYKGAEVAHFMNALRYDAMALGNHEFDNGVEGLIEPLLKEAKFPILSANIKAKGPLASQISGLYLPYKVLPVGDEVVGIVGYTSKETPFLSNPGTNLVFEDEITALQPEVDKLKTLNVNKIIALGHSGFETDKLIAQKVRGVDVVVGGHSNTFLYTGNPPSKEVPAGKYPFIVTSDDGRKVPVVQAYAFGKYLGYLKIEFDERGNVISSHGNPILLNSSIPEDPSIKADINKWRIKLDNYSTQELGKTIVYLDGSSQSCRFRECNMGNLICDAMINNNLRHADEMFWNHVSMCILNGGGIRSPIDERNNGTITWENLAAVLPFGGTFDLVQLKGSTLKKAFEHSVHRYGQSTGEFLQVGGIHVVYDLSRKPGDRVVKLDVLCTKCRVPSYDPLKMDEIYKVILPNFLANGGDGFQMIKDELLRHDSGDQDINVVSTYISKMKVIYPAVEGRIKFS
Procedure: Kinetic binding analysis of anti-CD73 mAbs and Fab fragments was performed by Surface Plasmon Resonance (SPR), using a Continuous Flow Microspotter (CFM, Wasatch Microfluidics, Salt Lake City, US) combined with an IBIS MX96 SPR instrument (IBIS Technologies, The Netherlands). CD73 cDNAs coding for the extracellular domains of human and cynomolgus CD73 were synthesized and each cloned into a vector containing a CMV promoter and either a C-terminal 6× histidine sequence (SEQ ID NO: 45) for His-tagged CD73 ECD, or a human IgG1 Fc sequence (AA P101-K330), resulting in fusion of IgG1 Fc C-terminally to the cloned CD73 ECD. The His-tagged and Fc-fusion constructs were transiently expressed using an ExpiCHO™ expression system and purified either by standard Ni-NTA chromatography or standard MabSelect™ SuRe™ procedures, respectively. Anti-CD73 Fab fragments were generated by digesting full-length IgG1 antibodies with GingisKHAN enzyme, using a kit provided by Genovis (Sweden). Affinities of Fab fragments were measured by capturing Fc-tagged antigens on a G-a-hu-IgG Fc SensEye® for 15 minutes using the CFM. After spotting, the SensEye® was positioned in the IBIS MX96 biosensor and immobilized antigens were fixed by SensEye FixIt kit. Kinetic analysis was performed by injecting monomeric Fab fragments at increasing concentrations from 0.8 nM to 300 nM. After each cycle of Fab fragment injection, the surface was regenerated by 10 mM glycine pH 3, 10% glycerol. Fab association was performed for 15 minutes and antigen dissociation was performed for 15 minutes. Affinities of full-length monoclonal antibodies (mAbs) were measured by capturing mAbs on a G-a-hu-IgG Fc SensEye® (Ssens BV, The Netherlands) for 15 minutes using a Continuous Flow Microspotter (CFM, Wasatch Microfluidics, Salt Lake City, US). After spotting, the SensEye was docked in the IBIS MX96 and spotted mAbs were fixed by SensEye FixIt kit (Ssens BV, The Netherlands). Kinetic analysis was performed by applying a kinetic titration series injecting increasing concentrations of His-tagged antigens from 0.16 nM to 10 nM as 2-fold dilutions. The surface was regenerated before the next cycle of cynomolgus antigen injections by 100 mM H₃PO₄, pH 3. MAb association was performed for 15 minutes and antigen dissociation was performed for 45 minutes.

[2] = target: T2, His-tagged human CD73 ECD (human, UniProt P21589 27-549); assay: SEC-MALS, mAb:CD73 0.1:1
T2 construct: runs as a homodimer of about 124-125 kDa in SEC-MALS; also called CD73-His; CD73-His ECD antigen
T2 sequence: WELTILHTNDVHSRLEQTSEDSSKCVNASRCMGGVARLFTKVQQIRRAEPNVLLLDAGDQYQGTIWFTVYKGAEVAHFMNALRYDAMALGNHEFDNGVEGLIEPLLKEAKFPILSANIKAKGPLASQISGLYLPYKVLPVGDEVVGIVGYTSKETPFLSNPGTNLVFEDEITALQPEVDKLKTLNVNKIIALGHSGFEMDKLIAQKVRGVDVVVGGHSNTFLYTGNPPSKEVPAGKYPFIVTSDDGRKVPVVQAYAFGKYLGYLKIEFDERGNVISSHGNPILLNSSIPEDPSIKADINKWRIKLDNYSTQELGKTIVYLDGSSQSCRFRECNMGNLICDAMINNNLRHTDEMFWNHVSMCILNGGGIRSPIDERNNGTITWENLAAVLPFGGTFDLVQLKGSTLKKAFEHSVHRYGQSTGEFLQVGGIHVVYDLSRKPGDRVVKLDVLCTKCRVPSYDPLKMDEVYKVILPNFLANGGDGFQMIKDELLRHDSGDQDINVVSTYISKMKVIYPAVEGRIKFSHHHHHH
Procedure: (§1) Anti-CD73 antibodies and His-tagged CD73 were analyzed in different ratios as well as individually to analyze the size of complexes formed between CD73 homodimer and anti-CD73 antibodies. Samples were prepared by mixing […] of CD73-His with 900, 450, 90 or 0 μmol of antibody diluted into PBS, pH 7.4. Samples were incubated for 30 min at room temperature followed by separation using a UHPLC UltiMate 3000 (Thermo Scientific) and SEC X-Bridge column (Waters) at a flow rate of 1.2 mL/min. Sample running buffer was 0.01 M Citrate, 250 mM L-Arginine.HCl, pH 6.0. Following HPLC separation, all samples were analyzed using a MiniDAWN TREOS MALS detector (Wyatt) and Optilab T-rEX refractive index detector (Wyatt). Data plots were generated using Graph Pad Prism.

[3] = target: T2, His-tagged human CD73 ECD; assay: SEC-MALS, mAb:CD73 1:1
Procedure: as §1

Kd [1]: 0.24 nM | molecular mass of complex, Peak 2 (MW, kDa) [2]: 282 kDa | molecular mass of complex, Peak 2 (MW, kDa) [3]: 269 kDa
B1: antibody 21127 (antibody, human IgG1, kappa, L234A L235A, V domains shown)
VH: EVQLVESGGGLVQPGRSLRLSCAASGFTFDDFAMHWVRQAPGKGLEWVSGISWNSGNIGYADSVKGRFTISRDNAKNSLYLQMNSLRAEDTALYYCAKDKSGSPYYYYGMDVWGQGTMVTVSS
VL: DIQMTQSPSSVSASVGDRVTITCRATQGISRRLAWYQQKPGKAPKLLIYAASSLQSGVPSRFSGSGSGTDFTLTISSLQPEDFATYYCQQANSFPLTFGGGTKVEIKR
notes: Fully human IgG1-LALA (L234A/L235A), kappa
